Measured values reported in PMC12104086, “Identification of a multiple DAMP scavenger mimicking the DAMP-binding site of TLR4 to ameliorate lethal sepsis” (Frontiers in Immunology, 2025).

Columns and labels:
[1] = target: T1, recombinant mouse cold-inducible RNA-binding protein (mouse, UniProt P60824 1-172); experiment: SPR; OpenSPR (Nicoya); OP18 (10 µg/mL in 10 mM acetate pH 5) immobilised on channel 2, channel 1 as reference; analytes eCIRP 31.3-2,000 nM, HMGB1 10-450 nM, αvβ3 integrin 10-100 nM, histone H3 22.5-270 nM in HBST (10 mM HEPES, 150 mM NaCl, 0.005% P20, 5 mM EDTA, pH 7.4); 40 µL/min, 20°C; global fit 1:1; conditions: both partners purified
T1 construct: also called rmCIRP; eCIRP
T1 sequence (looked up): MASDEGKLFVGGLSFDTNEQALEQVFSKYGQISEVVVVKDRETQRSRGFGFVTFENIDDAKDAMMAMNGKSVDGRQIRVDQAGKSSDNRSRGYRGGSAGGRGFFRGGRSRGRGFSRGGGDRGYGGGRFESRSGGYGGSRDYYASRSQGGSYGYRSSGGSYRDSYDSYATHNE

[2] = target: T2, recombinant human high mobility group box 1 (human, UniProt P09429 1-215); experiment: as above; conditions: both partners purified
T2 construct: human HMGB1, recombinant, bought; see the vendor's sheet; also called rhHMGB1; HMGB1; source: bought: R&D System (Cat. No. 1690-HMB-050)
T2 sequence (looked up): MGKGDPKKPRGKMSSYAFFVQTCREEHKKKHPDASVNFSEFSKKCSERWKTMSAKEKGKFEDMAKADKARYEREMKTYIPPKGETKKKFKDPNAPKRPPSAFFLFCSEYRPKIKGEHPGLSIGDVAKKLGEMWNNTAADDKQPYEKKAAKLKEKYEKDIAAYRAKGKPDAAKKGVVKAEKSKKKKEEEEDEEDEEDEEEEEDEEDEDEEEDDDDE

- binding result [1]: binds
- binding result [2]: binds
B1: opsonic peptide 18 (peptide)
peptide: GNFNSSNIMKTCLQNRGD
notes: also called OP18; source: synthetic peptide (GenScript)
